Ends that are not written are not given here.
T1: CRF2R
T1 sequence (Q13324 whole entry, species assumed, looked up): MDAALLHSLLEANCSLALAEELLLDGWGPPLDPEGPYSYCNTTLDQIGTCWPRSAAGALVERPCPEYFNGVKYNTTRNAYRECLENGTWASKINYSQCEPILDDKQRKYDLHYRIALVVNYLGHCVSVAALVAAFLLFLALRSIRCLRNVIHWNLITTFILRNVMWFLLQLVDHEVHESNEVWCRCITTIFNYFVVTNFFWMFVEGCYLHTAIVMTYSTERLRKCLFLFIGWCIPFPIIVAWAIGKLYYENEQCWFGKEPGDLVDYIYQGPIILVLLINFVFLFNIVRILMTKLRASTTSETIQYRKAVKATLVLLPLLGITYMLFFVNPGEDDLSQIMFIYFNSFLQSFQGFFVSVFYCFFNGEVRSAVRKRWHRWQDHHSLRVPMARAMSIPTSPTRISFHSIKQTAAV


How the values were obtained:
[1] = molecular target: CRF1R; assay: cell-based or functional assay
[2] = molecular target: T1, CRF2R; assay: cell-based or functional assay

| Binder | CRF1R EC50 [1] [nM] | CRF2R EC50 [2] [nM] | CRF1R Emax [1] [%] | CRF2R Emax [2] [%] |
| --- | --- | --- | --- | --- |
| IVLSLDVPIGLLQILLEQAKAEAAREQATTNARILARV-NH2 [SEQ ID NO 112] | > 100 | 12.3 | 10 | 100 |
| IVLSLDVPIGLLQILLEQAKARAAREQATTNARILARV-NH2 [SEQ ID NO 109] | 100 | 11.8 |  |  |
| IVLSLDVPIGLLQILLEQERAEAAREQATTNARILARV-NH2 [SEQ ID NO 113] | > 100 | 11.3 | 4 | 98 |
| IVLSLDVPIGLLQILLEQTKANAAREQATTVARILARV-NH2 [SEQ ID NO 116] | 100 | 100 | 4.8 | 26.4 |
| IVLSLDVPIGLLQILLEQAKQRAAREQATTNARILARV-NH2 [SEQ ID NO 110] | > 100 | 11 | 9 | 100 |
| IVLSLDVPIGLLQILLEQARQRAAREQATTNARILARV-NH2 [SEQ ID NO 114] | > 100 | 3.42 | 6 | 100 |
| IVLSLDVPIGLLQILLEQTKARAAREQATTNARILARV-NH2 [SEQ ID NO 117] | 100 | 9.41 |  |  |
| SQEPPISLDLPTQLLREVLEMTKADQLAQQAHSNRKLLDIA-NH2 [SEQ ID NO 105] | 100 | 100 | 5.2 | 9.15 |
| IVLSLDVPIGLLQILLEQERARAAREQATTNARILARV-NH2 [SEQ ID NO 119] | > 100 | 3.57 | 3 | 95 |
| IVLSLDVPIGLLQILLEQERQRAAREQATTNARILARV-NH2 [SEQ ID NO 111] | > 100 | 10.9 | 9 | 99 |
| ZGPPISIDLPFQLLRKMIEIEKQEKEKQQATNNRLLLATV (C-terminal amide) [SEQ ID NO 12] | 928 | 9.72 | 73 | 91 |
| ZGPPISIDLPFQLLRKMIEIEKQEKEKQQATTNRLLLDTI (C-terminal amide) [SEQ ID NO 13] | 97.7 | 3.88 | 69 | 79 |
| IVLSLDVPIGLLQILLEQTKADAAREQATTNARILARV-NH2 [SEQ ID NO 108] | > 100 | 79 | 3 | 97 |
| SQEPPISLDLPFHLLREVLEMTKADQLAQQAHSNRKLLDIA-NH2 [SEQ ID NO 104] | 100 | 100 | 11.1 | 4.5 |
| IVLSLDVPIGLLQILLEQEKQRAAREQATTNARILARV-NH2 [SEQ ID NO 115] | > 100 | 13.6 | 7 | 98 |
| IVLSLDVPIGLLQILLEQARARAAREQATTQARILARV-NH2 [SEQ ID NO 9] | 100 | 100 | 10 | 34 |
| IVLSLDVPIGLLQILLEQERQEAAREQATTNARILARV-NH2 [SEQ ID NO 118] | > 100 | 14.6 | 5 | 100 |
| SQEPPISLDLPTYLLREVLEMTKADQLAQQAHSNRKLLDIA-NH2 [SEQ ID NO 106] | 100 | 100 | 4.8 | 6.1 |

Results, then the binder that gave them:

| CRF1R EC50 [1] [nM] | CRF2R EC50 [2] [nM] | CRF1R Emax [1] [%] | CRF2R Emax [2] [%] | Binder |
| --- | --- | --- | --- | --- |
| > 100 | 7.79 |  |  | IVLSLDVPIGLLQILLEQAKARAAREQATTNARILARV-NH2 [SEQ ID NO 127] |
| > 100 | 3.83 |  |  | IVLSLDVPIGLLQILLEQTKARAAREQATTNARILARV-NH2 [SEQ ID NO 129] |
| > 100 | 8.57 | 9 | 92 | IVLSLDVPIGLLQILLEQARADAAREQATTNARILARV-NH2 [SEQ ID NO 130] |
| 100 | 69.9 | 7 | 100 | IVLSLEVPIGLLQILLEQARARAAREQATTNARILARV-NH2 [SEQ ID NO 120] |
| > 100 | 2.85 | 8 | 98 | IVLSLDVPIGLLQILLEQTRARAAREQATTNARILARV-NH2 [SEQ ID NO 128] |
| 1000 | 3.31 | 10.7 | 97 | IVLSLDVPIGLLQILLEQARAEAAREQATTNARILARV-NH2 [SEQ ID NO 122] |
| > 100 | 3.49 | 6 | 94 | IVLSLDVPIGLLQILLEQAKQEAAREQATTNARILARV-NH2 [SEQ ID NO 124] |
| > 1000 | 3.49 | 9.6 | 93.8 | IVLSLDVPIGLLQILLEQARQEAAREQATTNARILARV-NH2 [SEQ ID NO 123] |
| > 100 | 4.47 | 9 | 99 | IVLSLDVPIGLLQILLEQEKQEAAREQATTNARILARV-NH2 [SEQ ID NO 125] |
| > 100 | 5.25 | 8 | 91 | IVLSLDVPIGLLQILLEQAKADAAREQATTNARILARV-NH2 [SEQ ID NO 131] |
| > 100 | 13 | 7 | 91 | IVLSLDVPIGLLQILLEQTRADAAREQATTNARILARV-NH2 [SEQ ID NO 126] |
